# Data from patent publication US20220411511A1 (STCUBE, published 2022).
# T1: CTLA-4-His (human, UniProt P16410 36-161, limits assumed, N-linked glycosylation at N113 and N145 (heavily glycosylated))
# T1 construct: also called antigen CTLA-4-His; not shown: His tag
# T1 sequence: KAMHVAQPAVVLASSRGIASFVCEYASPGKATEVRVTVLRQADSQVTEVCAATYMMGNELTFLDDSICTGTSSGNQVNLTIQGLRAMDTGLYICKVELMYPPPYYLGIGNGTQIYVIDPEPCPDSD
# T2: CTLA-4 WT expressed on 293T cells (human, UniProt P16410 36-223, N-linked glycosylation at N113 and N145)
# T2 construct: also called wild type CTLA-4; Flag-tagged CTLA-4 WT
# T2 sequence: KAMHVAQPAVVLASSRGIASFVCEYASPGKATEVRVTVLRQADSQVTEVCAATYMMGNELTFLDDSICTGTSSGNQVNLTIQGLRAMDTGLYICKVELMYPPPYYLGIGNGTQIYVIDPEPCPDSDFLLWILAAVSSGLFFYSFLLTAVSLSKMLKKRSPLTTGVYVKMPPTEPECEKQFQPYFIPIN
# Experiments:
# CTLA-4-His [1] = biological target: T1, CTLA-4-His; experiment: Octet BLI, antibody loaded on sensor, 1:1 fit
# Procedure: KD determination and binning by Octet. […] Baseline was established in PBS containing 1 mg/ml bovine serum albumin (assay buffer), the association step was performed by submerging the sensors in a single concentration of analyte in assay buffer. Dissociation was performed and monitored in fresh assay buffer. All experiments were performed with sensor shaking at 1,000 rpm. ForteBio's data analysis software was used to fit the data to a 1:1 binding model to extract an association rate and dissociation rate. The KD was calculated using the ratio kd/kₐ. In a typical epitope binning assay, antigen CTLA-4-His (10 nM) was preincubated with the second antibody (10 nM) for 1 h at room temperature. Control antibody (20 nM) was loaded onto AMC sensors (ForteBio) and remaining Fc-binding sites on the sensor were blocked with a whole mouse IgG antibody (Jackson ImmunoResearch). The sensors were exposed to preinculated antigen-second antibody mixture. Raw data was processed using ForteBio's Data Analysis Software 7.0 and the antibody pairs were assessed for competitive binding.
# The baseline was established in PBS containing 1 mg/mL bovine serum albumin (assay buffer), and the association step was performed by submerging the sensors in a single concentration of analyte in assay buffer. Dissociation was performed and monitored in fresh assay buffer. All experiments were performed with the sensor shaking at 1,000 rotations per minute. ForteBio (Menlo Park, Calif., USA) data analysis software was used to fit the data to a 1:1 binding model to extract an association rate and dissociation rate. KD was calculated using the ratio kd:ka.
# [2] = biological target: T2, CTLA-4 WT expressed on 293T cells; experiment: IncuCyte, inhibition of CD86-Fc binding to 293T cells expressing CTLA-4
# Procedure: (§1) The green fluorescent signals were measured every 2 hours and quantified using an IncuCyte Zoom system (Essen BioScience).
# [3] = biological target: T3, CTLA-4 2NQ (non-glycosylated form) expressed in 293T cells (human, UniProt P16410 36-223); experiment: blot under native condition of 293T cells expressing flag-tagged CTLA-4
# T3 construct: also called CTLA-4 2NQ mutant; unglycosylated CTLA-4
# [4] = biological target: T4, CTLA-4 N113Q mutant expressed in 293T cells (human, UniProt P16410 36-223); experiment: as above
# T4 construct: Flag-tagged; single-glycosylated (only N145 can carry a glycan); Tested by Western blot
# [5] = biological target: T5, CTLA-4 N145Q mutant expressed in 293T cells (human, UniProt P16410 36-223); experiment: as above
# T5 construct: Flag-tagged; single-glycosylated (only N113 can carry a glycan); Tested by Western blot
# CTLA-4-His [6] = biological target: T1, CTLA-4-His; experiment: Biacore X100 SPR, antibody captured on CM5 chip, six concentrations of CTLA4, 1:1 fit
# Procedure: KD determination was performed via surface plasmon resonance using a Biacore X100 instrument (GE Healthcare, Uppsala, Sweden). […] was immobilized on a research-grade CM5 chip using standard procedures, and antibody was flowed over the chip at 2 μg/mL in HBS-EP⁺ buffer. Next, six concentrations of CTLA4, each a 2-fold dilution, were passed over the chip. Sensorgram data were analyzed by Biacore X100 evaluation software version 2.0.1 with 1:1 binding kinetics.
# [7] = biological target: T2, CTLA-4 WT expressed on 293T cells; experiment: IncuCyte, inhibition of CD86-Fc binding to CTLA-4-expressing cells; human chimera hSTC1807 (FIG. 8B), not the mouse STC1807 of FIG. 7B (2.189 µg/mL)
# Procedure: as §1
Kd (CTLA-4-His [1]) [nM],koff (CTLA-4-His [1]) [s⁻¹],kon (CTLA-4-His [1]) [M⁻¹ s⁻¹],EC50 [2] [µg/mL],binding result [3],binding result [4],binding result [5],Kd (CTLA-4-His [6]) [nM],koff (CTLA-4-His [6]) [s⁻¹],kon (CTLA-4-His [6]) [M⁻¹ s⁻¹],EC50 [7] [µg/mL],Binder
1.86,0.000499,268000,2.19,no binding,no binding,binds,0.469,0.000217,463000,,"anti-glycCTLA-4 monoclonal antibody STC1807 (antibody, V domains shown, Mouse hybridoma monoclonal antibody (BALB/c), kappa light chain; also called MAb STC1807) VH: EVQLQQSGAELVRPGALVKLSCKASGFNIKDYYMNWVKQRPEQGLEWIGWIDPENGNTIYDPKFQGKASIIADTSSNTAYLQLSSLTSEDTAVYYCARKWSYTMDYWGQGTSVTVSS VL: QIVLTQSPALMSASPGEKVTMTCSASSFVGYMYWYQQKPRSSPKPWIYLTSNLASGVPGRFSGSGSGTSYSLTISNMEAEDAATYYCQQWSSNPLTFGAGTKLELK"
,,,,,,,,,,0.331,"human chimera of STC1807 (hSTC1807) (antibody, V domains shown, domain: kappa constant region of pFUSEss-CLIg-hK; Mouse constant regions replaced by human ones; also called human chimera STC1807; chimeric antibody (hSTC1807); not shown: human IgG1 constant region (CH1-CH3) from vector pFUSEss-CHIg-hG1 (Invivogen)) VH: EVQLQQSGAELVRPGALVKLSCKASGFNIKDYYMNWVKQRPEQGLEWIGWIDPENGNTIYDPKFQGKASIIADTSSNTAYLQLSSLTSEDTAVYYCARKWSYTMDYWGQGTSVTVSS VL: QIVLTQSPALMSASPGEKVTMTCSASSFVGYMYWYQQKPRSSPKPWIYLTSNLASGVPGRFSGSGSGTSYSLTISNMEAEDAATYYCQQWSSNPLTFGAGTKLELKR"
